The nature of this data set: yeast display, Sf9 membrane polyspecificity reagent, FACS + sequencing; frameworks hold sequencing errors. An outline of the steps:
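Nanobodies came from a synthetic yeast display library in Saccharomyces cerevisiae BJ5465, induced with galactose for 36–48 hours and stained for 1 hour at 4 °C with 10% biotinylated, detergent-solubilized Sf9 membrane reagent. Cells were enriched on streptavidin microbeads and then FACS-sorted, with low and high (top ~1%) gates set on anti-HA fluorescence for expression and streptavidin fluorescence for reagent binding. Each polyreactivity label reflects the gate a clone came from. Genes were amplified by colony PCR, sequenced by MiSeq 2 × 250 and filtered by CDR length.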
Consider “QVKLVESGGGLVQAGGSLRISCAASGRIFKIYAMGWYRQAPGKERELVAAISRGGRTYYADSVKGRFTISRDNAKNTVDLQMNSLKPEDTEVYYCAADLLISPEFYYWGQGTQVTVSS”, for which the “polyreactivity (PSR sort gate)” value was “high polyreactivity”.
With “QVKLVESGGGLVQAGGSLRLSCAASGFTFGRYAMGWYRQAPGKERELVAAITRRGGSTYYADSVKGRFTISRDNAKNTVYLQMNSLKPEDTAVYYCNKVKQTRTDHDYWGQGTQVTVSS” the entry was “high polyreactivity”.
With “QVKLVESGGGLVQAGGSLRLSCAASGFTIANYAMGWYRQAPGKERELVAAITTSGSTYYADSVKGRFTISRDNAKNTVYLQMNSLKPEDTAVYYCAVSIWVWFASGFDYWGQGTQVTVSS” the entry was “high polyreactivity”; with “QVKLVESGGGLVQAGGSLRLSCAASGGTFGSNAMGWYRQAPGKERHLVAAISTTGGTTYYADSVKGRFTISRDNAKNTVYLQMNSLKPEDTAVYYCAKDGYVYGDWYTYAYDYWGQGTQVTVSS”, “low polyreactivity”.
The value for “QVKLVESGGGLVQAGGSLRLSCAASGIIFSGNAMGWYRQAPGKERELVAAITRGGRTYYADSVKGRFTISRDNAKNTVYLQMNSLKPEDTAVYYCAADDPHRAREYDYWGQGTQVTVSS” was “high polyreactivity”; that for “QVKLVESGGGLVQAGGSLRLSCAASGLTFRSYAMRWYRQAPGKERELVAAITRSGGSTYYADSVKGRFTISRDNAKNTVYLQMNRLKPEDTAVYYCAADYGRTLTGGDYWGQGTKVTVSS” was “high polyreactivity”; that for “QVKLVESGGGLVQAGGSLRLSCAASGNIFSIYAMGWYRQAPGKERELVAAITARGGRTYYADSVKGRFTFSRDNAKNTVYLQMNSLKPEDTAVYYCNAVRSTKGYWVPFGGDYWGQGTQGTVSS” was “low polyreactivity”.
With “QVKLVESGGGLVQAGGSLRLSCAASGRIFWSNAMVWYRQAPGKERELVAAISRRGGRTYYADSVKGRFTISRDNAKNTVYLQMNSLKPEDTAVYYCAADGTADYDYWGQGTQVTVSS”, the “polyreactivity (PSR sort gate)” value is listed as “high polyreactivity”.
The value for “QVKLVESGGGLVQAGGSLRLSCAASGSIFGSNAMGWYRQAPGKERELVAAITGRGGRTYYADSVKGRFTISRDNAKNTVYLQMNSLKPEDTAVYYCAAIRREVVAGDYWGQGTQVTVSS” was “high polyreactivity”.
For “QVKLVESGGGLVQAGGSLRLSCAASGTFYYNTMGWYIQAPGTERELVAAITSGGRTYADSVKGRFTISRDNAKNTVYLQMNSLKPEDTAVYYCAASWYFFSPGGTFGYWGQGTQVTVSS”, the “polyreactivity (PSR sort gate)” value is on record as “low polyreactivity”.
With “QVKLVESGGGLVQAGGSLRLSCAAYGSTFAGYAMGWYRQAPGKERELVAAISVSGGSTDYADSVKGRFTISRDNAKNTVYLQMNSLKPEDTAVYYCAAVYVRNQWWRNYYWGQGTQVTVSS” the entry was “low polyreactivity”.
The value for “QVKLVESGGGLVQAGGSLRLSCADSGSIFVPNTRGWYRQAPGKERELVAAITAGGSTDYADSVKGRFTISRDNAKNTVYLQMNSLKPEDTAVYYCNADVYSWVSGKEGDYWGQGTQVTVTS” was “low polyreactivity”; that for “QVKLVESGGGLVQAGGSLRLSCASSGFTFFHYAKGWYRQAPGKERELVAAISWSGGSTYYADTVKGRFTISRDNAKNTVYLQMNSLKPEDTAVYYCAADGGSTAFDYWGQGTQVTVSS” was “low polyreactivity”.
The value for “QVKLVESGGGLVQAGGSLRLSCPASGITFVYYAMGGYRQAPGKERELVAAISSAGSSTYYADSVKGRFTISRDNAKNTVYLQMNSLKPEDTAVYYCAATYYVPRLQWMDYWGQGTQVTVSS” was “low polyreactivity”; that for “QVKLVESGGGLVQAGGSLRLSSADSGFIFRRYAMGWYRQAPGKERELVAAINYSGGSTYYADSVKGRFTISRDHAKNTVYLQMNSPKPEYTAVYYCNAYGLRYYEYDYWGQGTQVTVSS” was “low polyreactivity”; that for “QVKLVESGGGLVQAGGSLRLTCAASGIIFSWYAMGWYRQAPGKERELVAAISWSGGRTYYADSVKGRFTISRDNAKNSFYLQMNSLKPEDTAVYYCAAERNLFSHWEARYFWGQGTQVTVSS” was “high polyreactivity”.

For the origin of these results see the nanobody polyreactivity screen of Harvey et al. (2022).
